Experimental data published in US20230374147A1 (HUMMINGBIRD BIOSCIENCE PTE, published 2023).

B1: 539-SP2-H3 (antibody produced by the hybridoma) (antibody, V domains shown)
VH: EVQLQQSGPELVKPGASVKMSCKASGYTFTSYVIHWVKQKPGQGLEWIGYVLPYNDVIKYNEKFKGKATLTSDKSSSTAYMDLSSLTSEDSAVYYCARWGDFDEGIWFPYWGQGTLVTVSA
VL: DVLMTQTPLSLPVSLGDHASVSCRSSQSIVHTDGNTYLEWYLQKPGQSPKLLIYKVSNRFSGVPDRFSGSGSGTDFTLKISRVEAEDLGVYYCFQGSHVPWTFGGGTKLEIK
notes: Mouse antibody from B cell hybridoma (culture supernatant or IgG purified from it)
B2: 1C8-402 hIgG1 (antibody)
heavy: not shown
light: DIQMTQSPSSLSASVGDRVTITCRASQDISNYLSWYQQKPGKAPKLLMRYTSRLHSGVPSRFSGSGSGTDFTLTISSLEQEDFATYYCQQGNLFPPTFGGGTKVEIKRTVAAPSVFIFPPSDEQLKSGTASVVCLLNNFYPREAKVQWKVDNALQSGNSQESVTEQDSKDSTYSLSSTLTLSKADYEKHKVYACEVTHQGLSSPVTKSFNRGEC
notes: also called [90]
B3: 1C8-507 hIgG1 (antibody, V domains shown)
VH: QVQLVQSGAEVKKPGASVKVSCKASGYTFRNYVMHWVKQKPGQGLEWMGWILPYNDGTKYAQKFQGKVTMTSDKSTSTVYMELSSLTSEDTAVYYCARYDYEGSFDYWGQGTLVTVSS
VL: DIQMTQSPSSLSASVGDRVTITCRASQDISNYLNWYQQKPGKAPKLLMRYTSLLHSGVPSRFSGSGSGTDFTLTISSLEQEDFATYYCQQGNTFPPTFGGGTKVEIKR
notes: also called [92]; hu1C8-507
B4: 1C8-403 hIgG1 (antibody, V domains shown)
VH: QVQLVQSGAEVKKPGASVKVSCKASGYTFTNYVMHWVKQKPGQGLEWMGYILPYNDGTKYAQKFQGKVTMTSDKSTSTVYMELSSLTSEDTAVYYCARYDWEGSFDYWGQGTLVTVSS
VL: DIQMTQSPSSLSASVGDRVTITCRASSDISNYLNWYQQKPGKAPKLLMCYTSRLHSGVPSRFSGSGSGTDFTLTISSLEQEDFATYYCQQGNTFPPTFGGGTKVEIKR
notes: also called [91]; hu1C8-403
B5: 539-SP5-D7 (antibody produced by the hybridoma) (antibody, V domains shown)
VH: EVMLVDSGGNLVKPGGSLKLSCAASGFTFSNYVISWVRQTPEKRLEWVATISTVGTNTYYPDSVRGRFTISRDNAENTLYLQMSSLRSEDTAIYYCSRHKYGYDDPSYAMDYWGQGTSVTVSS
VL: QLVLTQSSSASFSLGASAKLTCTLSSQHSTYTIEWYQQQPLKPPKYVMELKKDGSHSTGDGIPDRFSGSSSGADRYLSISNIQAEDEAIYICGVGDTVKEQFVYVFGGGTKVTVL
notes: as for B1
B6: 552-LN2-E6 (antibody produced by the hybridoma) (antibody, V domains shown)
VH: QIQLVQSGPELKKPGETVKISCMASGYTFTDYSVRWVKQAPGKGLEWMGWINTETGEPTYADDFKGRFAFSLETSASTAYLQINNLKNEDTATYFCAISYYYALDYWGHGTSVTVSS
VL: DIVLTQSPASLTVSLGQRATISCRASKSVSTSVYSFLHWYQQKPGQPPKLLIYLASNLESGVPARFSGSGSGTDFTLNIHPVEEEDAATYYCQHSRELPRTFGGGTKLEIK
notes: as for B1
B7: 552-LN2-F8 (antibody produced by the hybridoma) (antibody, V domains shown)
VH: QIQLVQSGPELKKPGETVKISCKASGYTFTDYTMYWVKQAPGKGLKWMGWINTETGEPTYADDFKGRFVFSLETSANTAYLQINNLKNEDTATYFCAISYYYGMDYWGQGTSVTVTS
VL: DIILTQSPASLAVSLGQRATITCRASKSVSTSGYNFVYWYQQKPGQPPKLLIYLASNLESGVPARFSGSGSGTDFTLNIHPVEEEDAATYYCQHSRELPRTFGGGTKLEIK
notes: as for B1
B8: 552-LN1-E9 (antibody produced by the hybridoma) (antibody, V domains shown)
VH: QIQLVQSGPELKKPGETVKISCKASGYTFTDYSIYWVKQAPGKGLKWMGWINTETGEPTYADDFKGRFAFSLETSASSAYLQINTLKNEDTATYFCSISYYYAMDYWGQGTSVTVSS
VL: DIVLTQSPASLAVSLGQRATISCRASKSVSTSGYSFLHWYQQKPGQPPKLLIYFASNLESGVPARFSGSGSGTDFTLNIHPVEEEDAATYYCQHSRELPRTFGGGTKLEIK
notes: as for B1
B9: 552-LN1-F4 (antibody produced by the hybridoma) (antibody, V domains shown)
VH: QIQLVQSGPELKKPGETVKISCMASGYTFTDYSVRWVKQAPGKGLEWMGWINTETGEPTYAHDFKGRFAFSLETSASTAYLQINNLKDEDTSTYFCAISYYYALDYWGHGTSVTVSS
VL: DIVLTQSPASLTVSLGQRATISCRASKSVSTSGYNFLHWYQQKPGQPPKLLIYLASNLESGAPARFSGSGSGTDFTLNIHPVEEEDAATYYCQHSRELPRTFGGGTKLEIK
notes: as for B1

Columns and labels:
[1] = target: T1, His-tagged cynomolgous macaque BCMA (Acro Biosystems, BCA-C52H7) (cynomolgus macaque, UniProt Q02223 1-54 (human entry)); assay: ELISA, hybridoma supernatant, coated His-tagged antigen
T1 construct: Bought protein; also called cyno BCMA; CyBCMA; not shown: His tag

[2] = target: T2, His-tagged mouse BCMA (Acro Biosystems, BCA-M52H3) (mouse, UniProt O88472 1-49); assay: as above
T2 construct: Bought protein; not shown: His tag
T2 chain: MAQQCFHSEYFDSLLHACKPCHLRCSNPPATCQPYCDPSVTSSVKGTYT

[3] = target: T3, His-tagged human BCMA (Acro Biosystems, Cat. #BCA-H522y) (human, UniProt Q02223 1-54); assay: as above
T3 construct: also called huBCMA; P1; not shown: His tag
T3 sequence: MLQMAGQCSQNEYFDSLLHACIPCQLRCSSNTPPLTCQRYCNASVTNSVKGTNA

[4] = target: T3, His-tagged human BCMA (Acro Biosystems, …); assay: ELISA, IgG purified from hybridoma supernatant, coated His-tagged antigen
[5] = target: T4, human BCMA expressed on cells (human, UniProt Q02223 1-184); assay: flow cytometry, hybridoma supernatant, HEK293T cells stably expressing human BCMA
T4 construct: the cell line is named under assay; also called wildtype human BCMA
T4 sequence: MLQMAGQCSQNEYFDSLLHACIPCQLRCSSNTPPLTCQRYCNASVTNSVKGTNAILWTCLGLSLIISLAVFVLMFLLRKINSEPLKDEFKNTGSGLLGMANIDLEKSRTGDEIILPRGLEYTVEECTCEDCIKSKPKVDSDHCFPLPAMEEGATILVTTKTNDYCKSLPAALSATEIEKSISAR

[6] = target: T5, Human HER3-His (Sino Biological, 10201-H08H) (human, UniProt P21860 20-643); assay: ELISA, coated His-tagged antigen
T5 construct: Specificity control; also called Human HERS-His

[7] = target: T1, His-tagged cynomolgous macaque BCMA …; assay: ELISA, coated Cyno BCMA-His
[8] = target: T4, human BCMA expressed on cells; assay: flow cytometry, fixed RPMI 8226 cells (BCMA+, TACI+: the cells carry both targets)
[9] = target: T1, His-tagged cynomolgous macaque BCMA …; assay: BLI, IgG on HFC tip, His-tagged cynomolgus BCMA 300-37.5 nM
[10] = target: T4, human BCMA expressed on cells; assay: flow cytometry, H929 cells (BCMA+)
[11] = target: T6, Cyno TACI-His (Sino Biological, 90976-C08H) (cynomolgus macaque, UniProt G7PTR7 1-165); assay: BLI, IgG on HFC tip, His-tagged cynomolgus TACI 300-37.5 nM
T6 construct: Bought protein; also called cynomolgous macaque TACI; CyTACI
T6 sequence: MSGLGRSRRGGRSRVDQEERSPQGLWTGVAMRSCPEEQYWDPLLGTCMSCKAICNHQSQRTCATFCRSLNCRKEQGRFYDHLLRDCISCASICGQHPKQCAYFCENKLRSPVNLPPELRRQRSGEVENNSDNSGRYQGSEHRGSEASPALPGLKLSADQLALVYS

[12] = target: T7, Human BCMA-His (Sino Biological, 10620-H08H) (human, UniProt Q02223 1-54); assay: ELISA, coated Human BCMA-His
T7 construct: not shown: His tag
T7 sequence: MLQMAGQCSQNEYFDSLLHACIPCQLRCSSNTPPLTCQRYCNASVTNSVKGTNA

[13] = target: T6, Cyno TACI-His (Sino Biological, …); assay: ELISA, coated Cyno TACI-His
[14] = target: T3, His-tagged human BCMA (Acro Biosystems, …); assay: BLI, IgG on HFC tip, His-tagged human BCMA 300-37.5 nM
[15] = target: T8, recombinant his-tagged human TACI (Sinobiological cat #11937-H08H) (human, UniProt O14836 1-165); assay: BLI, IgG on HFC tip, His-tagged human TACI 300-37.5 nM
T8 construct: Bought protein; also called Human TACI-His; huTACI; not shown: His tag
T8 sequence: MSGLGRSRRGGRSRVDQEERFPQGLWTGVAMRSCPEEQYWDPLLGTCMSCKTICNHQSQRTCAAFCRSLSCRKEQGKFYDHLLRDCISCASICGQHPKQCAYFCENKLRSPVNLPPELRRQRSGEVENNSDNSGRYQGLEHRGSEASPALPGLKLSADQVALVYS

[16] = target: T8, recombinant his-tagged human TACI …; assay: ELISA, coated Human TACI-His

Row | Binder | ELISA values (OD 450 nm) [1] | ELISA values (OD 450 nm) [2] | ELISA values (OD 450 nm) [3] | EC50 [4] | % Parent (percent positive cells) [5] | binding result [6] | EC50 [7] | EC50 [8] | Kd [9] | koff [9] | kon [9] | EC50 [10] | EC50 [12] | EC50 [13] | Kd [14] | koff [14] | kon [14] | Kd [15] | koff [15] | kon [15] | further results
1 | B1 | 0.669 OD | 0.542 OD | 0.813 OD | 0.152 µg/mL | 74.3% | – | – | – | – | – | – | – | – | – | – | – | – | – | – | – | –
2 | B2 | – | – | – | – | – | no binding (tested: 3 µg/ml (highest concentration)) | 2 pM | 0.000136 µM | 0.0024 µM | 0.00272 s⁻¹ | 1.13e+06 M⁻¹ s⁻¹ | 128 pM | 110 pM | 4 pM | 0.000791 µM | 0.00312 s⁻¹ | 3.95e+06 M⁻¹ s⁻¹ | 0.0702 µM | 0.0576 s⁻¹ | 821000 M⁻¹ s⁻¹ | Kd [11]: 0.00259 µM; koff [11]: 0.00186 s⁻¹; kon [11]: 718000 M⁻¹ s⁻¹; EC50 [16]: 20 pM
3 | B3 | – | – | – | – | – | no binding (tested: 3 µg/ml (highest concentration)) | 38 pM | 0.000136 µM | 0.0217 µM | 0.0354 s⁻¹ | 1.63e+06 M⁻¹ s⁻¹ | 95 pM | 87 pM | 11 pM | 0.0591 µM | 0.00172 s⁻¹ | 29200 M⁻¹ s⁻¹ | 0.61 µM | 0.163 s⁻¹ | 267000 M⁻¹ s⁻¹ | EC50 [16]: 21 pM
4 | B4 | – | – | – | – | – | no binding (tested: 3 µg/ml (highest concentration)) | 16 pM | 0.000172 µM | 0.00654 µM | 0.00917 s⁻¹ | 1.4e+06 M⁻¹ s⁻¹ | 134 pM | 62 pM | 34 pM | 0.0586 µM | 0.00288 s⁻¹ | 49200 M⁻¹ s⁻¹ | 1100 µM | 0.131 s⁻¹ | 118 M⁻¹ s⁻¹ | EC50 [16]: 51 pM
5 | B5 | 0.252 OD | – | 0.817 OD | 0.0335 µg/mL | 76.2% | – | – | – | – | – | – | – | – | – | – | – | – | – | – | – | –
6 | B6 | 0.729 OD | 0.002 OD | 0.832 OD | 0.0505 µg/mL | 60.8% | – | – | – | – | – | – | – | – | – | – | – | – | – | – | – | –
7 | B7 | 1.83 OD | 0.001 OD | 0.884 OD | 0.0585 µg/mL | 73.8% | – | – | – | – | – | – | – | – | – | – | – | – | – | – | – | –
8 | B8 | 2.07 OD | 0.017 OD | 0.836 OD | 0.071 µg/mL | 75.4% | – | – | – | – | – | – | – | – | – | – | – | – | – | – | – | –
9 | B9 | 1.89 OD | 0.006 OD | 0.845 OD | 0.037 µg/mL | 66.4% | – | – | – | – | – | – | – | – | – | – | – | – | – | – | – | –
